Consider 32 molecules from patent publication US20170081400A1 (CEPHALON, published 2017).

Substitutions are numbered along the chain they refer to.

First the molecules themselves.
T1: human TL1A extracellular domain with N-terminal HIS and FLAG tag (human, UniProt O95150 72-251)
T1 construct: the whole entry is named; also called TNFSF15
T1 sequence: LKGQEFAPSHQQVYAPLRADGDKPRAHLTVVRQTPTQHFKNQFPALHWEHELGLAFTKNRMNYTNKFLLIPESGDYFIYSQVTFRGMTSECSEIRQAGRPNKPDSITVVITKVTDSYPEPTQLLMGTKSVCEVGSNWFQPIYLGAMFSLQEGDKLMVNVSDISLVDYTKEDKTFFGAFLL

B1: 320-492 (antibody, human IgG1, name in Kabat numbering, V domains shown)
VH: QVQLVQSGAEVKKPGASVKVSCKASGYTFTSYDINWVRQAPGQGLEWMGWQNPNSGNTGYAQKFQGRVTMTADRSTSTAYMELSSLRSEDTAVYYCAREVPETAAFEYWGQGTLVTVSS
VL: QSVLTQPPSVSGAPGQRVTISCTSSSSDIGAGLGVHWYQQLPGTAPKLLIEGYYNRPSGVPDRFSGSKSGTSASLTITGLLPEDEGDYYCQSYDGTLSALFGGGTKLTVLG
notes: full-length human IgG1, lambda
B2: 320-493 (antibody, human IgG1, name in Kabat numbering, V domains shown)
VH: B1 VH with Q51D
VL: B1 VL
notes: as for B1
B3: 320-509 (antibody, human IgG1, name in Kabat numbering, V domains shown)
VH: B1 VH with Q51L, P53H
VL: B1 VL
notes: as for B1
B4: 320-515 (antibody, human IgG1, name in Kabat numbering, V domains shown)
VH: B1 VH with Q51L, N54S
VL: B1 VL
notes: as for B1
B5: 320-513 (antibody, human IgG1, name in Kabat numbering, V domains shown)
VH: B1 VH with Q51L, P53Y
VL: B1 VL
notes: as for B1
B6: 320-519 (antibody, human IgG1, name in Kabat numbering, V domains shown)
VH: B1 VH with Q51L, N54K
VL: B1 VL
notes: as for B1
B7: 320-521 (antibody, human IgG1, name in Kabat numbering, V domains shown)
VH: B1 VH with Q51L, N54W
VL: B1 VL
notes: as for B1
B8: 320-510 (antibody, human IgG1, name in Kabat numbering, V domains shown)
VH: B1 VH with Q51L, P53K
VL: B1 VL
notes: as for B1
B9: 320-504 (antibody, human IgG1, name in Kabat numbering, V domains shown)
VH: B1 VH with Q51L, N52Y
VL: B1 VL
notes: as for B1
B10: 320-502 (antibody, human IgG1, name in Kabat numbering, V domains shown)
VH: B1 VH with Q51L, N52K
VL: B1 VL
notes: as for B1
B11: 320-520 (antibody, human IgG1, name in Kabat numbering, V domains shown)
VH: B1 VH with Q51L, N54L
VL: B1 VL
notes: as for B1
B12: 320-503 (antibody, human IgG1, name in Kabat numbering, V domains shown)
VH: B1 VH with Q51L, N52W
VL: B1 VL
notes: as for B1
B13: 320-522 (antibody, human IgG1, name in Kabat numbering, V domains shown)
VH: B1 VH with Q51L, N54Y
VL: B1 VL
notes: as for B1
B14: 320-507 (antibody, human IgG1, name in Kabat numbering, V domains shown)
VH: B1 VH with Q51L, P53Q
VL: B1 VL
notes: as for B1
B15: 320-500 (antibody, human IgG1, name in Kabat numbering, V domains shown)
VH: B1 VH with Q51L, N52D
VL: B1 VL
notes: as for B1
B16: 320-499 (antibody, human IgG1, name in Kabat numbering, V domains shown)
VH: B1 VH with Q51L, N52Q
VL: B1 VL
notes: as for B1
B17: 320-508 (antibody, human IgG1, name in Kabat numbering, V domains shown)
VH: B1 VH with Q51L, P53D
VL: B1 VL
notes: as for B1
B18: 320-523 (antibody, human IgG1, name in Kabat numbering, V domains shown)
VH: B1 VH with Q51L, S55A
VL: B1 VL
notes: as for B1
B19: 320-496 (antibody, human IgG1, name in Kabat numbering, V domains shown)
VH: B1 VH with Q51W
VL: B1 VL
notes: as for B1
B20: 320-506 (antibody, human IgG1, name in Kabat numbering, V domains shown)
VH: B1 VH with Q51L, P53S
VL: B1 VL
notes: as for B1
B21: 320-494 (antibody, human IgG1, name in Kabat numbering, V domains shown)
VH: B1 VH with Q51H
VL: B1 VL
notes: as for B1
B22: 320-498 (antibody, human IgG1, name in Kabat numbering, V domains shown)
VH: B1 VH with Q51L, N52S
VL: B1 VL
notes: as for B1
B23: 320-518 (antibody, human IgG1, name in Kabat numbering, V domains shown)
VH: B1 VH with Q51L, N54H
VL: B1 VL
notes: as for B1
B24: 320-497 (antibody, human IgG1, name in Kabat numbering, V domains shown)
VH: B1 VH with Q51L, N52A
VL: B1 VL
notes: as for B1
B25: 320-512 (antibody, human IgG1, name in Kabat numbering, V domains shown)
VH: B1 VH with Q51L, P53W
VL: B1 VL
notes: as for B1
B26: 320-516 (antibody, human IgG1, name in Kabat numbering, V domains shown)
VH: B1 VH with Q51L, N54Q
VL: B1 VL
notes: as for B1
B27: 320-501 (antibody, human IgG1, name in Kabat numbering, V domains shown)
VH: B1 VH with Q51L, N52H
VL: B1 VL
notes: as for B1
B28: 320-505 (antibody, human IgG1, name in Kabat numbering, V domains shown)
VH: B1 VH with Q51L, P53A
VL: B1 VL
notes: as for B1
B29: 320-511 (antibody, human IgG1, name in Kabat numbering, V domains shown)
VH: B1 VH with Q51L, P53L
VL: B1 VL
notes: as for B1
B30: 320-517 (antibody, human IgG1, name in Kabat numbering, V domains shown)
VH: B1 VH with Q51L, N54D
VL: B1 VL
notes: as for B1
B31: 320-514 (antibody, human IgG1, name in Kabat numbering, V domains shown)
VH: B1 VH with Q51L, N54A
VL: B1 VL
notes: as for B1
B32: 320-495 (antibody, human IgG1, name in Kabat numbering, V domains shown)
VH: B1 VH with Q51K
VL: B1 VL
notes: as for B1

The first assay concerns the target T1, human TL1A extracellular domain with …. The assay can be described thus: SPR Run 7, antibody on Protein A, TL1A 5 ug/mL, timepoint 44. From the text:
(§1) 1.5. Antibody expression and antigen binding as determined by SPR. Using a CM5 sensor chip (GE Healthcare) Protein A (Pierce) was coupled to the chip surface using an amine coupling kit (GE Healthcare). Protein A was coupled on flow cell 1 and 2 (or alternatively 3 and 4) using a BIACORE® T200. […] The amount of supernatant or purified protein (as well as the concentration) injected during the capture stage varied between runs and is specified in the header of the Tables 3-11. At the end of injection of the supernatant or purified antibody the change in response units was measured. This value was reported as Capture Level in Tables 3-11. […] The response units were measured prior to the end of the dissociation phase. […] The sensorgrams were double referenced (flow cell 2 is subtracted from flow cell 1 and a buffer blank). As there were a large number of antibody variants to screen, these were screened across different runs (Tables 3-11). […] A summary of the conditions used in each run is below:
(§2) 2.1. […] In some experiment the antibodies were purified using Protein A chromatography (See 1.4) and purified antibodies were used in BIACORE® (GE Healthcare) experiments.
B1: the “TL1A Binding Level (Early)” value came out at 89 RU.
Still for that read-out and setting: next, B2: 48 RU.
On the same count and under the same terms, next, B3: 52 RU; B4: 73 RU; B5: 99 RU.
On the same count and under the same terms, next, B6: 217 RU; B7: 166 RU.
As for B8, the “TL1A Binding Level (Early)” value was determined as 44 RU.
The same measure, in the same setting: next, B9: 88 RU.
On the same count and under the same terms, for B10 the value was 88 RU.
Still for that read-out and setting: next, B11: 174 RU.
B12: the “TL1A Binding Level (Early)” value was determined as 41 RU.
Take B13: the “TL1A Binding Level (Early)” value was 141 RU.
On the same count and under the same terms, next, B14: 27 RU; B15: 69 RU; B16: 122 RU.
Still for that read-out and setting: for B17 the value was 19 RU; for B18, 88 RU; for B19, 93 RU.
The same measure, in the same setting: next, B20: 97 RU; B21: 150 RU; B22: 90 RU.
As for B23, the “TL1A Binding Level (Early)” value worked out at 169 RU.
The same measure, in the same setting: next, B24: 135 RU; B25: 126 RU.
For the molecule B26, the “TL1A Binding Level (Early)” value was determined as 92 RU.
On the same count and under the same terms, for B27 the value was 118 RU; for B28, 118 RU; for B29, 106 RU.
The same measure, in the same setting: for B30 the value was 55 RU; for B31, 96 RU; for B32, 84 RU.

The next assay has the same target. Briefly: SPR Run 7, antibody on Protein A, TL1A 5 ug/mL, timepoint 220.
From the text: as §1, §2
B1: the “TL1A Binding Level (Late)” value is 82 RU.
As to B2, the “TL1A Binding Level (Late)” value came to 46 RU.
Same read-out and setting: next, B3: 47 RU.
Same read-out and setting: for B4 the value was 67 RU; for B5, 90 RU.
Consider B6, for which the “TL1A Binding Level (Late)” value is 196 RU.
The same measure, in the same setting: for B7 the value was 152 RU; for B8, 33 RU.
Same read-out and setting: next, B9: 65 RU.
In the case of B10, the “TL1A Binding Level (Late)” value was found to be 59 RU.
Same read-out and setting: for B11 the value was 162 RU; for B12, 6 RU.
The same measure, in the same setting: for B13 the value was 129 RU.
Same read-out and setting: for B14 the value was 24 RU; for B15, 53 RU.
Regarding B16, the “TL1A Binding Level (Late)” value came out at 113 RU.
The same measure, in the same setting: next, B17: 12 RU; B18: 82 RU; B19: 87 RU.
Still for that read-out and setting: for B20 the value was 89 RU; for B21, 138 RU; for B22, 82 RU.
Same read-out and setting: next, B23: 153 RU; B24: 125 RU.
Turning to B25, the “TL1A Binding Level (Late)” value was found to be 118 RU.
Same read-out and setting: for B26 the value was 86 RU; for B27, 108 RU; for B28, 110 RU.
Same read-out and setting: next, B29: 98 RU; B30: 50 RU; B31: 88 RU.
Same read-out and setting: for B32 the value was 77 RU.
